Each block holds one binder with its values, some of them ahead of it.
How the values were obtained:
[1] = biological target: Rvb2, recombinant (S. cerevisiae, UniProt Q12464 1-471); assay: SEC
[2] = biological target: Hsp82-MC (residues 260-709) (S. cerevisiae, UniProt P02829 260-709); assay: pull-down
[3] = biological target: T1, Pih1/Nop17, full length, untagged, recombinant (monomeric species) (S. cerevisiae, UniProt P38768 1-344); assay: pull-down
T1 sequence: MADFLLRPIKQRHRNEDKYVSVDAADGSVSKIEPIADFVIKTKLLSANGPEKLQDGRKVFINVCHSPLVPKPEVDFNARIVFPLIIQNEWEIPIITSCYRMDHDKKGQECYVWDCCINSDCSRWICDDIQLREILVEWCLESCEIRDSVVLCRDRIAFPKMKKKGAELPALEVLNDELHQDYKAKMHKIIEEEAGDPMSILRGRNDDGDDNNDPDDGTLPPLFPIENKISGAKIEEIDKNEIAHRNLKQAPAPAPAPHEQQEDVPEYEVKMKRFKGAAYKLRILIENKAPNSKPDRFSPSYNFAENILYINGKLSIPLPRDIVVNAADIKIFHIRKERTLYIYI

Hsp82-MC (residues 260-709), sequence (P02829 260-709): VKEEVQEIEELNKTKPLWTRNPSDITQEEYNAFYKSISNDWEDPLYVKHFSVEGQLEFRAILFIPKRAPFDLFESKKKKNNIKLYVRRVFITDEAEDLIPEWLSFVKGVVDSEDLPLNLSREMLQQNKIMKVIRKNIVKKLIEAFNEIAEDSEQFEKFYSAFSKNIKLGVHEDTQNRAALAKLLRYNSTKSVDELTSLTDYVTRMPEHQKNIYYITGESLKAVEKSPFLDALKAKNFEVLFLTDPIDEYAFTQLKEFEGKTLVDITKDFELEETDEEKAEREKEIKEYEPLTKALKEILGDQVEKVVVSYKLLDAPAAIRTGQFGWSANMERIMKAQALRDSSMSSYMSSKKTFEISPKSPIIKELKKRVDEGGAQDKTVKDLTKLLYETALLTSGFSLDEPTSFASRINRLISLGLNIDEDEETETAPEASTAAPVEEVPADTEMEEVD
Rvb2, recombinant, sequence (Q12464 whole entry, the tested form may be a part): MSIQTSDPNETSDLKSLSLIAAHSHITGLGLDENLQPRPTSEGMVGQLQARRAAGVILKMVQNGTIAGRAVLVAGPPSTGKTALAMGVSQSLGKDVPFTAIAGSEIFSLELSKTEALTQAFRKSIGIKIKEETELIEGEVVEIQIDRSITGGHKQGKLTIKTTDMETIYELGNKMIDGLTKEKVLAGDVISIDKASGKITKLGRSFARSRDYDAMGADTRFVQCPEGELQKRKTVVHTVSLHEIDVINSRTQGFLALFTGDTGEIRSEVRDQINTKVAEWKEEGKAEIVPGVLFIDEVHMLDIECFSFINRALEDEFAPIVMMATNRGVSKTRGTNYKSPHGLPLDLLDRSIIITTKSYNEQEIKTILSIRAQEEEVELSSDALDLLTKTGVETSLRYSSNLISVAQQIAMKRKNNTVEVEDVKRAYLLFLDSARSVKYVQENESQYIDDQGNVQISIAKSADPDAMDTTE

- binding result [1]: binds
B1: Rvb1, recombinant (natural protein)
chain: MVAISEVKENPGVNSSNSGAVTRTAAHTHIKGLGLDESGVAKRVEGGFVGQIEAREACGVIVDLIKAKKMSGRAILLAGGPSTGKTALALAISQELGPKVPFCPLVGSELYSVEVKKTETLMENFRRAIGLRIKETKEVYEGEVTELTPEDAENPLGGYGKTISHVIVGLKSAKGTKTLRLDPTIYESIQREKVSIGDVIYIEANTGAVKRVGRSDAYATEFDLETEEYVPLPKGEVHKKKEIVQDVTLHDLDVANARPQGGQDVISMMGQLLKPKKTEITEKLRQEVNKVVAKYIDQGVAELIPGVLFIDEVNMLDIEIFTYLNKALESNIAPVVVLASNRGMTTVRGTEDVISPHGVPPDLIDRLLIVRTLPYDKDEIRTIIERRATVERLQVESSALDLLATMGTETSLRYALQLLAPCGILAQTSNRKEIVVNDVNEAKLLFLDAKRSTKILETSANYL

- binding result [2]: binds
B2: Sti1 TPR2a domain (residues 260-386) (domain or fragment)
chain: IEADKEKAEGNKFYKARQFDEAIEHYNKAWELHKDITYLNNRAAAEYEKGEYETAISTLNDAVEQGREMRADYKVISKSFARIGNAYHKLGDLKKTIEYYQKSLTEHRTADILTKLRNAEKELKKAE

- binding result [3]: binds
- binding result [2]: binds
B3: Tah1, full length, recombinant (natural protein)
chain: MSQFEKQKEQGNSLFKQGLYREAVHCYDQLITAQPQNPVGYSNKAMALIKLGEYTQAIQMCQQGLRYTSTAEHVAIRSKLQYRLELAQGAVGSVQIPVVEVDELPEGYDRS

Source: publication PMC2234237 (The Journal of Cell Biology, 2008)
